Experimental data reported in paper PMC5983706, “A Rationally Designed Hsp70 Variant Rescues the Aggregation-Associated Toxicity of Human IAPP in Cultured Pancreatic Islet β-Cells” (International Journal of Molecular Sciences, 2018).
Ends that are not written are not given here. FAM = carboxyfluorescein

Target: T1, Hsp70 wild type (human Hsp70 1A) (human, UniProt P0DMV8 1-641)
T1 construct: human Hsp70 1A, GenBank entry NP005336; also called Hsp70 WT; heat shock protein 70 kDa
Experiment: other fluorescence titration; 0.15 µM FAM-hIAPP with 0 to 36 µM chaperone in 50 mM Tris pH 7.4, 150 mM KCl, 5 mM MgCl2, 1 h at room temperature; FAM fluorescence at 520 nm; one-site binding model
Conditions: both partners purified

T1 sequence (P0DMV8 whole entry): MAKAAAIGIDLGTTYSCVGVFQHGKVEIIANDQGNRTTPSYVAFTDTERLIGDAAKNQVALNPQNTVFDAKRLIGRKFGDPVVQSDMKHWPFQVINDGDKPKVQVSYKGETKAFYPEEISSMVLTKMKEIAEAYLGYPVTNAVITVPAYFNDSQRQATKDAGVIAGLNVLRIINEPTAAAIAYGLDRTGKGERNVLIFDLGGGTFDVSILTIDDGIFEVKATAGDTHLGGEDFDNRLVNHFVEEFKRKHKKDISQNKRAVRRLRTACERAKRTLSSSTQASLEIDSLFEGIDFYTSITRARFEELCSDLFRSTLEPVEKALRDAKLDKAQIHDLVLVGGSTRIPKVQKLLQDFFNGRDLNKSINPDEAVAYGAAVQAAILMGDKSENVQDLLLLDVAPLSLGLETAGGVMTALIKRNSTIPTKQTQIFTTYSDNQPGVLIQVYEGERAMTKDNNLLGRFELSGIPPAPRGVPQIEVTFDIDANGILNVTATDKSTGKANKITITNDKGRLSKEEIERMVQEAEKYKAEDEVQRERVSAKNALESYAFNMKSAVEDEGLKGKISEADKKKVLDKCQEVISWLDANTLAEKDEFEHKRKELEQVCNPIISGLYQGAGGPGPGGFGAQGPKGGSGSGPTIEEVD

B1: FAM-hIAPP (human islet amyloid polypeptide N-terminally labelled with carboxyfluorescein) (peptide, UniProt P10997 34-70, looked up)
peptide: {FAM}-KCNTATCATQRLANFLVHSSNNFGAILSSTNVGSNTY
modifications: ends and bridges not checked
notes: human islet amyloid polypeptide (hIAPP, amylin), the mature hormone cut from its precursor; also called amylin; source: bought: Phoenix Pharmaceuticals
Kd: 2200 ± 300 nM
